Where “and” joins values, the source holds several entries; their conditions need not be identical. Equal entries are not always repeated. Peptide text beside a SMILES is read from it.
Key:
[1] = biological target: PepV (Staphylococcus aureus), recombinant His-PepV (Staphylococcus aureus); experiment: SEC; purified PepV alone or incubated with a 10-fold molar excess of peptide; Agilent SEC-3 or TSKgel Super2000 on HPLC; 0.5 M HEPES pH 7.6, 150 mM NaCl; 0.35 mL/min; absorbance at 280 nm
[2] = biological target: PepV (Staphylococcus aureus), recombinant His-PepV (Staphylococcus aureus); experiment: native gel or EMSA; purified proteins, alone or mixed with peptide or precursor (0.5 µM PepV, 10-fold molar excess or rising concentrations of SpA SP); NativePAGE 4%-16% gel, 5 mA, 4°C, silver stain
[3] = biological target: T1, PepV (staphylococcal PepV) (Staphylococcus aureus, UniProt Q5HF23); experiment: Cd-ninhydrin colorimetric dipeptidase assay, […] nm; format: biochemical; conditions: 25 mM Tris pH 7.5, 2 mM MnCl2, 5 mM TCEP, 37 °C
T1 construct: gene SACOL1801; His-tagged (pSY273, pET16b-H6-pepV), E. coli BL21(DE3), Ni-NTA; dimer, tetramer and higher oligomers
T1 sequence (Q5HF23 1-469): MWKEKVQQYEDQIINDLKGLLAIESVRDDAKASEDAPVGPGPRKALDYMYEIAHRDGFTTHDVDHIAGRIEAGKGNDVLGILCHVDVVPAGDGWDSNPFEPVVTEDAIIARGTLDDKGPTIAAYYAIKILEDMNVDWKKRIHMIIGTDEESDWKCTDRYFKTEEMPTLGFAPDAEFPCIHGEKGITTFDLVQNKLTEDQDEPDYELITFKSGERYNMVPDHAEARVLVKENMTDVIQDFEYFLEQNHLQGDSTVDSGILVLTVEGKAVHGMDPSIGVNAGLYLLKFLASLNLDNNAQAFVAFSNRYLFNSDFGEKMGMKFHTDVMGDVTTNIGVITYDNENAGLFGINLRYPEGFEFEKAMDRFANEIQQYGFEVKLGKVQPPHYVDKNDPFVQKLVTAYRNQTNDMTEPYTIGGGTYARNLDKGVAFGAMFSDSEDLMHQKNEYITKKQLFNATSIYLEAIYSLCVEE

PepVEpi = biological target: T2, PepVEpi (Staphylococcus epidermidis, UniProt Q5HNF9); experiment: Cd-ninhydrin colorimetric dipeptidase assay, […] nm; format: biochemical; conditions: 25 mM Tris pH 7.5, 2 mM MnCl2, 5 mM TCEP, 37 °C
T2 construct: gene SERP1310; purified ortholog, probably His-tagged from E. coli BL21(DE3); multimers beyond dimer
T2 sequence (Q5HNF9 1-469): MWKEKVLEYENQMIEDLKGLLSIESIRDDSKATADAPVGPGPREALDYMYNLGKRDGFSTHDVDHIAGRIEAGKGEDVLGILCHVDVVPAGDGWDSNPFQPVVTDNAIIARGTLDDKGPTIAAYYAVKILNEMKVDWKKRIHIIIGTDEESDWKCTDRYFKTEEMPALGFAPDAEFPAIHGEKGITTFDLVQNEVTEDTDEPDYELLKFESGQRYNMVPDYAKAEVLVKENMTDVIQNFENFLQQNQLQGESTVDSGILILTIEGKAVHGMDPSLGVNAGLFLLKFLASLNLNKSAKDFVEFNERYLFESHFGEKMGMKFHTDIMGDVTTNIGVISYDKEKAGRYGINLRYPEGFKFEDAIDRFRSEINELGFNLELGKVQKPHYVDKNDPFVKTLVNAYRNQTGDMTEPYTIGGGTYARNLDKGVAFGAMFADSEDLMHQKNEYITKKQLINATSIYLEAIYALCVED

PepVSpn = biological target: T3, PepVSpn (Streptococcus pneumoniae, UniProt A0A0H2UP69); experiment: Cd-ninhydrin colorimetric dipeptidase assay, […] nm; format: biochemical; conditions: 25 mM Tris pH 7.5, 2 mM MnCl2, 5 mM TCEP, 37 °C
T3 construct: gene pepV; purified ortholog, probably His-tagged from E. coli BL21(DE3); dimer only
T3 sequence (A0A0H2UP69 1-466): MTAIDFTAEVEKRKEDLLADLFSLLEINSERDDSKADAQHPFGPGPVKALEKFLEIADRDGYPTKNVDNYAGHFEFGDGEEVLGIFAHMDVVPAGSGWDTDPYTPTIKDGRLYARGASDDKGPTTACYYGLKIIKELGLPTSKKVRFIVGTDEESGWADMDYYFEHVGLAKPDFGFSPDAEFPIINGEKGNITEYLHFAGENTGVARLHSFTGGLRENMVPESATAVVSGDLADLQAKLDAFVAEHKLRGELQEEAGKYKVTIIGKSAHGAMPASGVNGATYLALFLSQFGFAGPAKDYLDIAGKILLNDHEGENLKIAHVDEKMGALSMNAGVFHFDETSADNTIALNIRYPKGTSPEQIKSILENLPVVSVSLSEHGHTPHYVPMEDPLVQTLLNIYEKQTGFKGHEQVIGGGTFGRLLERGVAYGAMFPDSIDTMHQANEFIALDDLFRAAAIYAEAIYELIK

PepVBsub = biological target: T4, PepVBsub (Bacillus subtilis, UniProt O34944); experiment: Cd-ninhydrin colorimetric dipeptidase assay, […] nm; format: biochemical; conditions: 25 mM Tris pH 7.5, 2 mM MnCl2, 5 mM TCEP, 37 °C
T4 construct: gene ytjP; purified ortholog, probably His-tagged from E. coli BL21(DE3); multimers beyond dimer
T4 sequence (O34944 1-463): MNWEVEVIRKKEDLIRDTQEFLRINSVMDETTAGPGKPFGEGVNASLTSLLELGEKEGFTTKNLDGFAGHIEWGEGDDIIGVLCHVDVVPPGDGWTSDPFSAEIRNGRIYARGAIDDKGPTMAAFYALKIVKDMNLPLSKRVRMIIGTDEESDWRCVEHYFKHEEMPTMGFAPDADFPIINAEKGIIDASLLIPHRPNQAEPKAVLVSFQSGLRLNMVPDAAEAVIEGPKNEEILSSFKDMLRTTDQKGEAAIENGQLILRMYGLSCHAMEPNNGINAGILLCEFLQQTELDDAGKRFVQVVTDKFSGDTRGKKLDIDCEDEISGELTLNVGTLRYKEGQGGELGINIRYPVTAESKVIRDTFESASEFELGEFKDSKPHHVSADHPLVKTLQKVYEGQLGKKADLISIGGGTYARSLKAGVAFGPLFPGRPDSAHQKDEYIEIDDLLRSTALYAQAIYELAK

[4] = biological target: the molecule itself; experiment: native gel or EMSA; purified proteins, alone or mixed with peptide or precursor (0.5 µM PepV, 10-fold molar excess or rising concentrations of SpA SP); NativePAGE 4%-16% gel, 5 mA, 4°C, silver stain

Molecule: PepV (Staphylococcus aureus), recombinant His-PepV (enzyme)
- stoichiometry N [1]: 2 and 4
- stoichiometry N [2]: 2 and 4

Molecule: SpA SP (signal peptide of staphylococcal protein A)
- concentration of SpA SP at which the tetrameric and oligomeric PepV species diminish [2]: 300 nM

Molecule: C[C@H](N)C(=O)N[C@@H](C)C(=O)O [Ala-Ala] (H-Ala-Ala-OH)
- Cd-ninhydrin colorimetric dipeptidase assay, 507 nm [3]: we assessed the enzymatic activity of PepV in the presence of the SpA SP
- Cd-ninhydrin colorimetric dipeptidase assay, 507 nm (PepVEpi): performed a colorimetric ninhydrin dipeptidase assay using Ala-Ala as the substrate
- Cd-ninhydrin colorimetric dipeptidase assay, 507 nm (PepVSpn): performed a colorimetric ninhydrin dipeptidase assay using Ala-Ala as the substrate
- Cd-ninhydrin colorimetric dipeptidase assay, 507 nm (PepVBsub): performed a colorimetric ninhydrin dipeptidase assay using Ala-Ala as the substrate

B1: E. coli PepT (enzyme, Escherichia coli, UniProt P29745 1-408, looked up)
chain: MDKLLERFLNYVSLDTQSKAGVRQVPSTEGQWKLLHLLKEQLEEMGLINVTLSEKGTLMATLPANVPGDIPAIGFISHVDTSPDCSGKNVNPQIVENYRGGDIALGIGDEVLSPVMFPVLHQLLGQTLITTDGKTLLGADDKAGIAEIMTALAVLQQKKIPHGDIRVAFTPDEEVGKGAKHFDVDAFDARWAYTVDGGGVGELEFENFNAASVNIKIVGNNVHPGTAKGVMVNALSLAARIHAEVPADESPEMTEGYEGFYHLASMKGTVERADMHYIIRDFDRKQFEARKRKMMEIAKKVGKGLHPDCYIELVIEDSYYNMREKVVEHPHILDIAQQAMRDCDIEPELKPIRGGTDGAQLSFMGLPCPNLFTGGYNYHGKHEFVTLEGMEKAVQVIVRIAELTAQRK
notes: PepT of Escherichia coli, found with Foldseek as a protein structurally similar to PepV; The methods speak of recombinant His-tagged proteins from E. coli BL21(DE3); the construct of PepT is not described; also called Esherichia coli PepT; source: purified
- stoichiometry N [4]: 4

Reference: paper PMC12671168, “The signal peptide of staphylococcal protein A alters the multimeric states of PepV” (Microbiology Spectrum, 2025)
